Measurements: patent publication US20010043931A1, “Human respiratory syncytial virus” (Whitehead Institute for Biomedical Research, priority 1999, published 2001)

B1: HRSV-C39 peptide (residues 482-520 of HRSV F0) (peptide)
peptide: VFPSDEFDASISQVNEKINQSLAFIRKSDELLHNVNAGK
notes: Made by proteinase K trimming of the HRSV-N57/C45 complex

What was measured:
[1] = Thermal denaturation followed by circular dichroism (CD) spectroscopy; type: physicochemical; conditions: at 10 μM in PBS
Description: CD spectra were measured at protein concentration 10 μM in PBS buffer using an AVIV 62 DS spectrometer (Aviv Associates, Lakewood, N.J.), as described (Fass, D. & Kim, P. S., Curr. Biol., 5:1377-1383 (1995).

[2] = biological target: T1, HRSV-N51 peptide (residues 157-207 of HRSV F0) (human respiratory syncytial virus …); experiment: complex left after proteinase K digestion of HRSV-N57/C45; CD thermal melt
T1 construct: Made by proteinase K trimming of the HRSV-N57/C45 complex
T1 peptide: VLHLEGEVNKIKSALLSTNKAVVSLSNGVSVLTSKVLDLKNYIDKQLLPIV

Molecule | apparent Tm [1] | binding result [2]
HRSV-C45: C-terminal trypsin fragment of recRSV-1, residues 476-520 of HRSV F0 (SEQ ID NO.: 2) (NFYDPLVFPSDEFDASISQVNEKINQSLAFIRKSDELLHNVNAGK) | does not show a thermal unfolding transition | –
HRSV-N57: N-terminal trypsin fragment of recRSV-1, residues 153-209 of HRSV F0 (SEQ ID NO.: 1) (AVSKVLHLEGEVNKIKSALLSTNKAVVSLSNGVSVLTSKVLDLKNYIDKQLLPIVNK) | 40-50 °C | –
B1 | – | binds
